{"source": "paper PMC7305236", "about": "(Nature Communications, 2020)", "note": "No end group written: not given here.", "data": [{"biological_target": "ACKR3 C-terminally tagged with SmBiT (human, UniProt P25106 1-362)", "sequence (P25106 whole entry)": "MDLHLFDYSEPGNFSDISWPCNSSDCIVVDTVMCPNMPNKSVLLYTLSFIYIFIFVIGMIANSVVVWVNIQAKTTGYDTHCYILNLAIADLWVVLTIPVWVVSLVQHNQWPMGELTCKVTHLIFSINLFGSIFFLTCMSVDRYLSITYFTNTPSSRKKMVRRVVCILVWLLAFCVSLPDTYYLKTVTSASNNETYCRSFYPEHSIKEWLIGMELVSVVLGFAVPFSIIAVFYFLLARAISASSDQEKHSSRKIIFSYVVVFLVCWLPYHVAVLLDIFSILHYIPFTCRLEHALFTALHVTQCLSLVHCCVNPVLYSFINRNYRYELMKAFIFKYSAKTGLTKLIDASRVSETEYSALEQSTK", "experiment": "cell-based or functional assay", "units": {"β-arrestin-1 recruitment (NanoBiT, U87 cells): EC50": "nM"}, "values": [{"binder": "FGGFMRRK-NH2 (designed binder)", "β-arrestin-1 recruitment (NanoBiT, U87 cells): EC50": 0.61}]}, {"biological_target": "T1, atypical chemokine receptor ACKR3 (formerly CXCR7) (human, UniProt P25106 1-362)", "T1 sequence (P25106 whole entry)": "as above", "experiment": "cell-based or functional assay", "units": {"Supplementary Table 4: EC50 of β-arrestin-1 recruitment to ACKR3, U87 cells": "nM"}, "values": [{"binder": "YGGFMRRV-NH2", "note": "[Adrenorphin]", "Supplementary Table 4: EC50 of β-arrestin-1 recruitment to ACKR3, U87 cells": 109}]}, {"biological_target": "mu opioid receptor (MOR) (human, UniProt P35372 1-400)", "sequence (P35372 whole entry)": "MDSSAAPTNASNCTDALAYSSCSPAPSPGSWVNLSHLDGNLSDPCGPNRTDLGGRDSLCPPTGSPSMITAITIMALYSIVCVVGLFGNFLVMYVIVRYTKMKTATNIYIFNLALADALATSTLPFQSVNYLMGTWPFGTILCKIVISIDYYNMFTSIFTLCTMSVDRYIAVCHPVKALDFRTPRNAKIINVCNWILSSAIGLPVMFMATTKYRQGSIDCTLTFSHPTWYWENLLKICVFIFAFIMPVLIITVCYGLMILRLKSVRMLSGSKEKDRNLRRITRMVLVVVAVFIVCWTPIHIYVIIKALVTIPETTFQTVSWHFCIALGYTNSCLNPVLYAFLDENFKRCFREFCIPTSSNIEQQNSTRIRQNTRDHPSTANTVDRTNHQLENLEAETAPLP", "experiment": "cell-based or functional assay", "units": {"Supplementary Table 4: EC50 of β-arrestin-1 recruitment to MOR, U87 cells": "nM"}, "values": [{"binder": "YGGFMRRV-NH2", "note": "[Adrenorphin]", "Supplementary Table 4: EC50 of β-arrestin-1 recruitment to MOR, U87 cells": 101}]}, {"biological_target": "delta opioid receptor (DOR) (human, UniProt P41143 1-372)", "sequence (P41143 whole entry, stated change not applied)": "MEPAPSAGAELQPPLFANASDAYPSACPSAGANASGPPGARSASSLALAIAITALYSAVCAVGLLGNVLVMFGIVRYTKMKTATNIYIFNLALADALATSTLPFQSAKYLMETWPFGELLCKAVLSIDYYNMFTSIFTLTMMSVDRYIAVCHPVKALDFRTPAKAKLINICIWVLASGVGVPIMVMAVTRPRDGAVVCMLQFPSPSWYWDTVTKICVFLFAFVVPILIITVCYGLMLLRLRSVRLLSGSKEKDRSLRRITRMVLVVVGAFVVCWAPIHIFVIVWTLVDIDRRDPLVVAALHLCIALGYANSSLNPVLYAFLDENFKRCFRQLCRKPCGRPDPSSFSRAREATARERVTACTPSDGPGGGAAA", "experiment": "cell-based or functional assay", "units": {"Supplementary Table 4: EC50 of β-arrestin-1 recruitment to DOR, U87 cells": "nM"}, "values": [{"binder": "YGGFMRRV-NH2", "note": "[Adrenorphin]", "Supplementary Table 4: EC50 of β-arrestin-1 recruitment to DOR, U87 cells": 323}]}, {"biological_target": "kappa opioid receptor (KOR) (human, UniProt P41145 1-380)", "sequence (P41145 whole entry)": "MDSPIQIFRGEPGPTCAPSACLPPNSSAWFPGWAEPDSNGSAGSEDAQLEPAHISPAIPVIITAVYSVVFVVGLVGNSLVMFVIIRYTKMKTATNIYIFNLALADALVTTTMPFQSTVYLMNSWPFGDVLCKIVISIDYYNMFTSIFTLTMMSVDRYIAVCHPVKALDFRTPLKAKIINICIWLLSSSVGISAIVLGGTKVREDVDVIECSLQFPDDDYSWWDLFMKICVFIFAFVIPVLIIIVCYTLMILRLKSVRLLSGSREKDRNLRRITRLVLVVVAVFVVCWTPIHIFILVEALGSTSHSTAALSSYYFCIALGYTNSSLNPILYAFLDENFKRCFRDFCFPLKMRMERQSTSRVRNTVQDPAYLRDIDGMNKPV", "experiment": "cell-based or functional assay", "units": {"Supplementary Table 4: EC50 of β-arrestin-1 recruitment to KOR, U87 cells": "nM"}, "values": [{"binder": "YGGFMRRV-NH2", "note": "[Adrenorphin]", "Supplementary Table 4: EC50 of β-arrestin-1 recruitment to KOR, U87 cells": 65.6}]}, {"biological_target": "mouse ACKR3 (mouse, UniProt P56485 1-362)", "sequence (P56485 whole entry)": "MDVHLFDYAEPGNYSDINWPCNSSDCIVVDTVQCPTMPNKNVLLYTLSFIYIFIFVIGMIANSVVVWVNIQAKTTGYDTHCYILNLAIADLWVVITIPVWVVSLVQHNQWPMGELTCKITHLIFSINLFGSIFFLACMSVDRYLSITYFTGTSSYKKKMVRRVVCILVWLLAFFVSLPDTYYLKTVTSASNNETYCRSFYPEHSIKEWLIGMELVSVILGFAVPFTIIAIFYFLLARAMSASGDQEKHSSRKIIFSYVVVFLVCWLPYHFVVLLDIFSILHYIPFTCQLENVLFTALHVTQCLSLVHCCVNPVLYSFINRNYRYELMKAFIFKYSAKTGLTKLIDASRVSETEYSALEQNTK", "experiment": "cell-based or functional assay", "units": {"Supplementary Table 6: EC50 of β-arrestin-1 recruitment to mACKR3, U87 cells": "nM"}, "values": [{"binder": "FGGFMRRK-NH2", "Supplementary Table 6: EC50 of β-arrestin-1 recruitment to mACKR3, U87 cells": 2.31}]}, {"biological_target": "T1, atypical chemokine receptor ACKR3 …", "experiment": "cell-based or functional assay", "remark": "another data set of the same source", "units": {"Supplementary Table 9: EC50 of β-arrestin-1 recruitment to ACKR3, HEK cells": "nM", "Supplementary Table 9: EC50 of β-arrestin-2 recruitment to ACKR3, U87 cells": "nM", "Supplementary Table 9: EC50 of β-arrestin-1 recruitment to ACKR3, CHO cells": "nM"}, "values": [{"binder": "YGGFLRRIRPKLKWDNQ", "note": "[Dynorphin A]", "Supplementary Table 9: EC50 of β-arrestin-1 recruitment to ACKR3, HEK cells": 110, "Supplementary Table 9: EC50 of β-arrestin-2 recruitment to ACKR3, U87 cells": 97.6}, {"binder": "FGGFTGARKSARK-NH2", "note": "[Nociceptin 1-13-NH2]", "Supplementary Table 9: EC50 of β-arrestin-1 recruitment to ACKR3, CHO cells": "~10000", "Supplementary Table 9: EC50 of β-arrestin-1 recruitment to ACKR3, HEK cells": "~10000", "Supplementary Table 9: EC50 of β-arrestin-2 recruitment to ACKR3, U87 cells": "~10000"}, {"binder": "FGGFTGARKSARK-NH2 (also: ψ(CH2-NH) bond between Phe1 and Gly2)", "note": "[[Phe1Ψ(CH2-NH)-gly2]nociceptin-(1-13)-NH2]", "Supplementary Table 9: EC50 of β-arrestin-1 recruitment to ACKR3, CHO cells": "~5000", "Supplementary Table 9: EC50 of β-arrestin-1 recruitment to ACKR3, HEK cells": 3760, "Supplementary Table 9: EC50 of β-arrestin-2 recruitment to ACKR3, U87 cells": 4340}, {"binder": "YGGFMRRV-NH2", "note": "[Adrenorphin]", "Supplementary Table 9: EC50 of β-arrestin-1 recruitment to ACKR3, CHO cells": 22.5, "Supplementary Table 9: EC50 of β-arrestin-1 recruitment to ACKR3, HEK cells": 72.6, "Supplementary Table 9: EC50 of β-arrestin-2 recruitment to ACKR3, U87 cells": 81.5}, {"binder": "YGGFMRRVGRPEWWMDYQKRYG", "note": "[BAM22]", "Supplementary Table 9: EC50 of β-arrestin-1 recruitment to ACKR3, CHO cells": 12.5, "Supplementary Table 9: EC50 of β-arrestin-1 recruitment to ACKR3, HEK cells": 23.2, "Supplementary Table 9: EC50 of β-arrestin-2 recruitment to ACKR3, U87 cells": 22.9}, {"binder": "YGGFLRRQFKVVT", "note": "[Dynorphin B]", "Supplementary Table 9: EC50 of β-arrestin-1 recruitment to ACKR3, CHO cells": "~1000", "Supplementary Table 9: EC50 of β-arrestin-1 recruitment to ACKR3, HEK cells": 673, "Supplementary Table 9: EC50 of β-arrestin-2 recruitment to ACKR3, U87 cells": 908}, {"binder": "FGGFTGARKSARKLANQ", "note": "[Nociceptin]", "Supplementary Table 9: EC50 of β-arrestin-1 recruitment to ACKR3, CHO cells": "~10000", "Supplementary Table 9: EC50 of β-arrestin-2 recruitment to ACKR3, U87 cells": "> 10000"}]}, {"biological_target": "T1, atypical chemokine receptor ACKR3 …", "experiment": "flow cytometry on cells", "units": {"EC50": "nM"}, "values": [{"binder": "FGGFMRRK(Cy5)", "note": "[LIH383-Cy5]", "EC50": 6.65}]}, {"biological_target": "T1, atypical chemokine receptor ACKR3 …", "experiment": "flow cytometry on cells", "remark": "another data set of the same source", "units": {"IC50": "nM"}, "values": [{"binder": "YPWF-NH2", "note": "[Endomorphin-1]", "IC50": "> 10000"}, {"binder": "YGGFLRRIRPKLKWDNQ", "note": "[Dynorphin A]", "IC50": 85.3}, {"binder": "FGGFTGARKSARK-NH2", "note": "[Nociceptin 1-13-NH2]", "IC50": "> 10000"}, {"binder": "FGGFTGARKSARK-NH2 (also: ψ(CH2-NH) bond between Phe1 and Gly2)", "note": "[[Phe1Ψ(CH2-NH)-gly2]nociceptin-(1-13)-NH2]", "IC50": "> 10000"}, {"binder": "FGGFMRRK-NH2", "IC50": 4}, {"binder": "GGFLRRIRPKLK-NH2", "note": "[Dynorphin A 2-13-NH2]", "IC50": "> 10000"}, {"binder": "YGGFMRRV-NH2", "note": "[Adrenorphin]", "IC50": 41.2}, {"binder": "YGGFMRRVGRPEWWMDYQKRYG", "note": "[BAM22]", "IC50": 31.3}, {"binder": "YGGFLRRQFKVVT", "note": "[Dynorphin B]", "IC50": "~1000"}, {"binder": "GGFLRRIRPKLKWDNQ", "note": "[Dynorphin A 2-17]", "IC50": "~10000"}]}]}
